From publication PMC4872087 (Nucleic Acids Research, 2016)
Values joined by “and” are separate entries in the source; they are usually repeats but may differ in a detail not shown here. Identical values can stand only once. Ends that are not written are not given here. Me3 = trimethyl (trimethylated lysine)

Assays:
[1] = target: Histone H3K4me3 (Homo sapiens) (UniProt P68431); experiment: ITC; details: cited from earlier work
His-Spindlin1(49–262) [2] = target: T1, His-Spindlin1(49–262) (human, UniProt Q9Y657 49-262); experiment: fluorescence polarisation; FP displacement assay: 100 nM His-Spindlin1(49–262), 10 nM FL-H3K4me3, dilution series of unlabeled competitor; incubation 15, 30, 60 and 90 min (IC50 values in that order); 25°C; details: both partners purified
T1 construct: Spindlin1, human, amino acids 49-262; Modified pET15b with a minimal, non-cleavable hexahistidine tag; also called recombinant Spindlin1; source: E. coli BL21(DE3) codon plus, purified (Talon beads, gel filtration on superdex S75)

His-Spindlin1(49–262) [3] = target: T1, His-Spindlin1(49–262); experiment: fluorescent thermal shift assay (FTSA); 0.1 mg/ml His-Spindlin1(49–262), 5x SYPRO Orange, dilution series of H3(1–12)K4me3; 100 mM Hepes pH 7.5, 150 mM NaCl; KD by regression of Tm against ligand concentration; details: both partners purified
His-JMJD2C(874–988) [4] = target: T2, His-JMJD2C(874–988) (murine, UniProt Q8VCD7 874-988); experiment: AlphaScreen or HTRF; AlphaLISA displacement assay with His-JMJD2C(874–988) and biotin-H3(1–23)K4me3 (methods: 300 nM and 25 nM; legend: 5 μM and 200 nM), dilution series of unlabeled H3(1–12)K4me3; beads 0.02 mg/ml; details: both partners purified
T2 construct: JMJD2C (lysine demethylase), murine, amino acids 874-988, double Tudor domain; Modified pET15b with a minimal, non-cleavable hexahistidine tag; also called JMJD2C-Td; JMJD2C-TD; source: E. coli BL21(DE3) codon plus, purified (Talon resin, gel filtration)
T2 sequence (looked up): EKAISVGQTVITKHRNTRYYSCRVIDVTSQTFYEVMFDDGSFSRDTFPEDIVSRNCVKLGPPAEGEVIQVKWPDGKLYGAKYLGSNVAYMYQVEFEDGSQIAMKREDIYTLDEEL

[5] = target: T3, Spindlin1, expressed by HL-60 suspension cells (human (endogenous in HL-60), UniProt Q9Y657 1-262); experiment: cellular thermal shift assay (CETSA) on cell lysate; HL-60 cell lysate treated with 500 μM H3(1–12)K4me3 or, as control, H3(1–21)K4me0 at 37°C for 60 min; heated 3 min at a temperature gradient; soluble Spindlin1 by Western blot; apparent Tagg; details: one partner purified
T3 construct: Spindlin1, endogenous in HL-60 cells, detected by Western blot with an anti-Spindlin1 antibody; also called Spindlin1 (CETSA); source: endogenous, HL-60 cell lysate

His-Spindlin1(49–262) [6] = target: T1, His-Spindlin1(49–262); experiment: AlphaScreen or HTRF; AlphaLISA displacement assay: 15 nM His-Spindlin1(49–262), 30 nM biotin-H3(1–23)K4me3, dilution series of unlabeled competitor; incubation 15, 30, 60 and 90 min (IC50 values in that order); 25 mM Hepes pH 7.5, 100 mM NaCl, 1 mg/ml BSA, 0.05% CHAPS; 25°C; details: both partners purified
His-JMJD2C(874–988) [7] = target: T2, His-JMJD2C(874–988); experiment: fluorescence polarisation; FP displacement assay: 10 μM His-JMJD2C(874–988), 15 nM FL-H3K4me3, dilution series of unlabeled H3(1–12)K4me3; details: both partners purified
His-JMJD2C(874–988) [8] = target: T2, His-JMJD2C(874–988); experiment: fluorescent thermal shift assay (FTSA); 0.4 mg/ml His-JMJD2C(874–988), 5x SYPRO Orange, dilution series of H3(1–12)K4me3; KD by regression of Tm against ligand concentration; details: both partners purified
His-JMJD2C(874–988) [9] = target: T2, His-JMJD2C(874–988); experiment: fluorescence polarisation; KD determination of the binding of FL-H3K4me3 to JMJD2C-Td; same optimization route as for Spindlin1; details: both partners purified
His-Spindlin1(49–262) [10] = target: T1, His-Spindlin1(49–262); experiment: fluorescence polarisation; His-Spindlin1(49–262) 0.06 to 750 nM titrated against 10 nM FL-H3K4me3; 60 min at 25°C; corrected for unspecific binding with 10 μM unlabeled H3(1–12)K4me3; one-site binding fit; 25 mM Hepes pH 7.5, 100 mM NaCl, 1 mg/ml BSA, 0.05% CHAPS; details: both partners purified

T1 sequence (Q9Y657 49-262): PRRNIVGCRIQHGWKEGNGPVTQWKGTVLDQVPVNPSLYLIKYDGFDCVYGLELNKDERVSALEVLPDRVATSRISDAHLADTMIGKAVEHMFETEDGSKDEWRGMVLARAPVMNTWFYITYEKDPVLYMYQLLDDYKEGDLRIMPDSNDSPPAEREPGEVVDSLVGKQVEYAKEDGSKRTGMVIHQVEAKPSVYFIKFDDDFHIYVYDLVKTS
T3 sequence (Q9Y657 whole entry): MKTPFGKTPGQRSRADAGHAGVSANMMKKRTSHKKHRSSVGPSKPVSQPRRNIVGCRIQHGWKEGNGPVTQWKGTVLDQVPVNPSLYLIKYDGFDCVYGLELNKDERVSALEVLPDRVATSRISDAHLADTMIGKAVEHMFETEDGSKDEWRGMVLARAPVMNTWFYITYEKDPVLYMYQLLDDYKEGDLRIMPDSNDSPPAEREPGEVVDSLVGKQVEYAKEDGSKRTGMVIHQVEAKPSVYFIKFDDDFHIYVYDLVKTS

In the case of Spindlin1 (from UniProt Q9Y657), the Kd [1] is given as 250 nM.

B1: H3(1–12)K4me3 (peptide)
peptide: ARTK(Me3)QTARKSTG
notes: histone H3, amino acids 1-12; Free N-terminus (H2N-) and free C-terminus (-COOH) as printed; also called unlabeled H3K4me3 peptide; unlabeled H3(1–12)K4me3; source: synthetic peptide, custom synthesized by Peptide Specialty Laboratories GmbH
For B1, the IC50 (His-Spindlin1(49–262) [2]) was 180 nM and 232 nM and 202 nM and 201 nM, the Kd (His-Spindlin1(49–262) [3]) was 380 nM and the IC50 (His-JMJD2C(874–988) [4]) was 4500 ± 200 nM. For the same molecule, the “ΔTagg (against lysate treated with H3(1–21)K4me0)” value [5] was 5.9 °C, the IC50 (His-Spindlin1(49–262) [6]) was 118 nM (3×) and 116 nM and the IC50 (His-JMJD2C(874–988) [7]) was 19100 ± 2100 nM. The Kd (His-JMJD2C(874–988) [8]) was 12500 nM and 13300 nM.

B2: FL-H3K4me3 (peptide)
peptide: ARTKQTARKSTGGK
modifications: trimethylated lysine at position 4; mixed isomers of 5-(and-6)-carboxyfluorescein coupled to K14 side chain
notes: histone H3, N-terminal tail; also called fluorescent probe; fluorescein labeled peptide derived from histone H3; source: synthetic peptide, custom synthesized by Peptide Specialty Laboratories GmbH
With B2 the Kd (His-JMJD2C(874–988) [9]) was 14500 ± 1900 nM and the Kd (His-Spindlin1(49–262) [10]) was 31 nM.
